Data reported in the DeepSol protein solubility set.

Test: soluble on expression in E. coli; label from the status in PepcDB or PDB records

Sequence	soluble on expression in E. coli
VICHGDFAPYNVALNGNQTVGIFDFDTAHPAPRLWDIAYAVYCWAPFKTNEYDALGDLNSQSARAKLFCDSYGLSNAEREKL	not soluble
MAHHHHHHVDDDDKMVTDQRWLIDKSALVRLTDSPDMEIWSNRIERGLVHITGVTRLEVGFSAECGEIARREFREPPLSAMPVEYLTPRIEDRALEVQTLLADRGHHRGPSIPDLLIAATAELSGLTVLHVDKDFDAIAALTGQKTERLTHRPPSA	soluble
MGSDKIHHHHHHMSFFKTPLIGLKADSFRHPLDLEATKTLKQIPGIDMLVRNWLGPMAEQVFYVENIASSILVGEKQLPDLYKLLLDACEILDIEPPQLYVRQHPAPNAYTFAVRGKQPFVVLHTSLIDILTPEEIQAVIAHELGHLKCDHSVYLTPVNLLILAAAIVPNVGTFVAQAIQAQLLEWVRCAEFTCDRAALLATQDPKVVMSVLMKLAGGSPTLAPQLNLDAFVAQARAYDDISKTELGEMVKTARTAQLTHPVPVLRAREIDRWASSTEYQSLIQSHGLKSTSKEVAPKGGWRNW	not soluble
MSTKEIICTLKGQFFLSPREEKFLRLLEEMGIPEEDIQEGIRECLKSVSPKKRKNFPLFKCFSKILEVNKVRALERGKREHLDWKRVFERKVSVVKHLLDFNYTEPKTEEEAEKTLQEIERKIFKKLWENLDKERKREIYNKYKEVKEDEELFKELIKHELRKIFQIPVLSLYVD	not soluble
MNDKTTRGRASKVDLLPPNIKSTLTMMLRDKQYSQAEILEEINNIIADSGLDESMQLSKTGLNRFASKMERFGKKIREAREVAEVWTKQLVEAPQSDIGKLLMEAVKTMAFDLTLNADEAVANDPKFLNQLALIANRIEQAQSISEERERKVRKEVAQQAADTAEKVISQAGLSADTVAQIKQQILGIA	not soluble
MSERLFVLSQHILPKLALTRLAGRFADWKGGGITTAAIRRFIARYNVDMGEAADSDPAAYATFNDFFTRALKPGVRPVADARLVCPVDGAVSQLGAIDSGRIFQAKGRDYSATALLAGDADLAARFADGHFATIYLSPRDYHRIHMPCAGRLLEMTYVPGDLYSVNPATARGVDRLFARNERVVCVFEDEQSQPFVMVLVGATIVGSMATVWHGVVNPPRRPAVEKWDYRGQDIRLAKGEEMGRFLLGSTVVLLYPAGPLKFNPQWQAASPVRMGEAMASLEHHHHHH	not soluble
MGSDKIHHHHHHMDFYQVIKTRTSTKKFKNTPIAAPKLDNMLNAAMMSPSWKNKTSYSFVIVDDERKKDAIANFIINSDEDAKNSVKDAPMVVAIVGDTTESGHINGKEYYLVDSAIAMEHFVLAAANEGYGTCWIASFDEKRMKDELRIPDKYSVVAITPVGEVGESKAHYEPKDIENHIYRNYWSMPYSEKKHLVMK	not soluble
MAEEFVTLKDVGMDFTLGDWEQLGLEQGDTFWDTALDNCQDLFLLDPPRPNLTSHPDGSEDLEPLAGGSPEATSPDVTETKNSPLMEDFFEEGFSQEIIEMLSKDGFWNSNFGEACIEDTWLDSLLGDPESLLRSDIATNGESPTECKSHELKRGLSPVSTVSTGEDSMVHNVSEKTLTPAKSKEYRGEFFSYSDHSQQDSVQEGEKPYQCSECGKSFSGSYRLTQHWITHTREKPTVHQECEQGFDRNASLSVYPKTHTGYKFYVCNEYGTTFSQSTYLWHQKTHTGEKPCKSQDSDHPPSHDTQPGEHQKTHTDSKSYNCNECGKAFTRIFHLTRHQKIHTRKRYECSKCQATFNLRKHLIQHQKTHAAKTTSECQECGKIFRHSSLLIEHQALHAGEEPYKCNERGKSFRHNSTLKIHQRVHSGEKPYKCSECGKAFHRHTHLNEHRRIHTGYRPHKCQECVRSFSRPSHLMRHQAIHTAEKPYSCAECKETFSDNNRLVQHQKMHTVKTPYECQECGERFICGSTLKCHESVHAREKQGFFVSGKILDQNPEQKEKCFKCNKCEKTFSCSKYLTQHERIHTRGVKPFECDQCGKAFGQSTRLIHHQRIHSRVRLYKWGEQGKAISSASLIKLQSFHTKEHPFKCNECGKTFSHSAHLSKHQLIHAGENPFKCSKCDRVFTQRNYLVQHERTHARKKPLVCNECGKTFRQSSCLSKHQRIHSGEKPYVCDYCGKAFGLSAELVRHQRIHTGEKPYVCQECGKAFTQSSCLSIHRRVHTGEKPYRCGECGKAFAQKANLTQHQRIHTGEKPYSCNVCGKAFVLSAHLNQHLRVHTQETLYQCQRCQKAFRCHSSLSRHQRVHNKQQYCL	soluble
MGSDKIHHHHHHMNKIAPAEIASMLNDWYLAIKKHEVEESSRLFEEVKPLLDDMEEDQEVLAYFSLLELRHKVLLHEARGQGFQHEEPSHMNATSDMLKYYFFLFEGMYEAYKNNYDIAIGLYKDAEQYLDNIPDPIEKAEFHLKVGKLYYKLGQNIVSLNHTRQAVKTFREETDYKKKLASALITMSGNFTEMSQFEEAEAYLDEAIRITSELEDHFFEAQLLHNFGLLHAQSGKSEEAVSKLEEALQNDEYARSAYYYHSAYLLIRELFKIKKKEQALSYYQDVKEKLTAEPNRICEAKIDILYAIYAEGGHAETFHLCKQHMDDLLSEKEYDSVRELSILAGERYRELELYKEAAHFFYEALQIEELIKRTEVI	not soluble
MAPAPEVVSWAEAVEQDNAPHIQEGADGTRTETAFTEVDGVRWKVVTQFKVINKRVPKVVADRKKWVKFGSCKGEPAGPQVATTYVAEEVDMQFTRNRAGEQILDVQEDKQTAKTTSREHCRHCKGNDHWSTHCPYKVMYQLDEEADADKDTEKDRMAMGMRPDGRQIDRNRSDENTCRVTNLPQEMNEDELRDLFGKIGRVIRIFIARDKVTGLPKGFAFVTFESRDDAARAIAELNDIRMYHMVLKVEWTRPSN	not soluble
MTDPARMVELWRGGLLESWHTGHAAVWSADGGLVEAWGDPGTVIFPRSSCKMMQALPLLESGAGAGLSSQRLALACASHQGAELHTGHVGRWLTDLGLCEADLRCGAHMPADTAERDRLIRAYEEPCQIHNNCSGKHAGFLMLSQHLKAGPEYVEIDHPVQQAVRTAFEEVTDEASPGYGIDGCSAPNFATTVAGLARAMAFFAGASTGGGVRERSAARLVEAMIAHPELVAGEGRACTELMRAMGGRAAIKTGAEAVFVAIVPEKRLGIALKIVDGSTRASEAAIAALLVRHGLLDPAHPAARKRLDAIQTNWRGRETGILRAAPGFPLEHHHHHH	not soluble
MGSDKIHHHHHHMELVQFGCEDWLNVWEKSATIDIAQSTIDSLSLEEVLAFEEDNGEAFMSQMMKEKFSYGWIEGSPAFKSEVAKLYKRVPEDNILSTNGATGANFLTILGLIGQGDHVIAQYPSYQQLYDWPKTLGAQVDYWHIKEENNWLPQIEELRRLVKSNTKLICLNNAAQPTGAIMSPKFLSEVVEIARSVDAYILCDEVYLPLDEETPYSPIADLYEKGISTNSISKTYSVPGIRVGWVATQDRDLCNEFRKIRDYTLICTGVFDDAVAALVLKHKDKVLERARKIVKGNLSILKEWVENEPLVSMVYPNAVSVSFVKFEELDPTKTEDFAIQLLREKGVLIIPGNRFDLSGYARIGYCTDETTLRQGLKLLSEFLREYQV	not soluble
PDAPRNLQLSLPREAEGVIVGHWAPPIHTHGLIREYIVEYSRSGSKMWASQRAASNFTEIKNLLVNTLYTVRVAAVTSRGIGNWSDSKSITTIKG	soluble
MSDSASGYEYVYYDRQVGAVQKSPNLMNDPKGALFYTLDSVFGDPGDTTGWILYNDEMPADANRSNNATLGHTKGVIAFDIASSSALWLLHSWPKYASPSVPGVPTPLYGQTFLCLSLDLATAGKLAAQMALHQQPQVYLPRTGGLDHTSPLYALTQPLNASAPGDSDSLDFKTRGGVPFKVIAKNRKWGKDFWNDLVGPTLKADMYVETWIRGKIPPVLDSDGVHKTYDIKFIDLRKLGAPWAWPETQDHAKWGITTTDNWVCVGDINRMVTQEKRGGGTIAFQDPKLWKALCETDLIIPPPGKTDAQARAMIRKTHEPAELEHHHHHH	not soluble
MGSDKIHHHHHHMIRVLVLYFTRGGHTAKIASAIADQLKNRGAQVDLVDINSAAATRINWPDYQVVALGACVLYGTYDKTVFQFIEQHNQALSALPNSFFCVNVVARNPEKRIPENNKYLQKFIALSPWTPADLKIIAGKVDYPSWPWYDRLAIQLIMKMTKGPTDPKSVIDYTDWEDVKIYADHLLDLTEVTATT	not soluble
MAGDPMGSGESKANTAETPEVLDVKLTGPEKVNPGESAAYEAAVSYGDEAVTDADEVEFEVWKEGEKDASQMFKVKQEKGVYRLETTFKEDGVYTVQSHVTAKKQHSMPTLKVQVGDADAASNQSEEEHSHHHLEHHHHHH	soluble
MGSDKIHHHHHHGEGVVVATGKAQAAASTVAGNAYGRLQFSPCTLSSGSAAGNIEAQCAQLQVPENPAAPNGRKLALKIAWLESDAGASHAPDPVFFIAGGPGQSATQVAAIVDMGLREVRKHRDIFLVDQRGTGGSHPLECRDAGGTPLVLENDSAATAEQLSAYAARCAAGLRNDADPRYFTTSEAIGDLDAVREALGAQQINLIGGSYGTRVAQQYAARYPQHTRTVVLDGVAPNDLVIGGEFARTFEDAIALQTTQCKAQPACAKRFPVDTRTQLRQVVERLRQAPAPVDYRDPRTGELHHQEVNADTVAGLAFGFSYAPETASLLPLVLDEAAAGRYASLMALAQMSGSDMADQMNRPMQWSVLCSEDAGRYRAPAAQDDTLLGAQVAEMFFAACKTWPSKPTPAAAFAPFRSTLPVLLLSGQLDPVTPPRYAARVLQGLPNGRHLIAPGQSHGVFRLGCMPKVLGQFLQTADAKGLDARCVDSLTDVPAFTSFNGWEP	not soluble
MSTKLTGYVWDGCAASGMKLSSVAIMARLADFSNDEGVCWPSIETIARQIGAGMSTVRTAIARLEAEGWLTRKARRQGNRNASNVYQLNVAKLQAAAFSQLSDSDPSKSDASKSDPSKFDASKSGKKAGFHPSESGGDPSVKSKHDPSDKKPSRPDSSQPDTQTAEQDFLTRHPDAVVFSPKKRQWGTQDDLTCAQWLWKKIIALYEQAAECDGEVVRPKEPNWTAWANEIRLMCVQDGRTHKQICEMYSRVSRDPFWCRNVLSPSKLREKWDELSLRLSPSVSTYTEKREDPYFKASYDNVDYSQIPAGFRG	not soluble
MGSDKIHHHHHHLGKFSHIAIAFIDVVMESDHAGLELIRWIREELHNKTIRLILRTGQPGQAPEEDVIVNYDINDYKAKSELDSRKLMTSVYSALRSYRDIMEIEQARRAQLSHRMGLERVLEATAGLFELRTLHKFADGLLTQVATLLNLDNETLLLSCNAMDAISGHVDCAGIEILAGTGQFANSSAKTILPERIDKLLRSALAQKRCLYEDNYFVGYFPTKSGLINLLYMDGINKIDDLDKKLIDIFAINVGIAFENLLLNQEVEDTQSELILRLGDVVESRSKEAANHVKRMAEYCAQLALLAGLNEYDADLLRRASPMHDIGKIAIPDAVLLKPGKLNDDEWQIMRQHPNIGHQILANSERPILKAASIIALQHHEKYDGSGYPSNLKQDEIHIFARIVAIADVFDALSHTRCWLFLPIPQKCKISDRLAQKHTVNWSLYRRIP	not soluble
MAQFIDRRLNGKKKSTVNRQRFIRRHKDQIKRAVSDAVNQRSVTNTESGESISIPKGDISEPVFHQGQGGIRERVLPGNDQFIKGDKIERPQGGNGGGGAGDGDASADGEGQDDFIFQISKDEYLDILFEELELPNLEKNQVQKITEWETHRAGYQTAGVPSNIDIVRSLQQSLARRTAMTAGKKRLLSELEQELETIKNSEPSQPLAVRKMQEQIEELRERIKHVPYIDSFDLRYKNYERTPIPSSQAVMFCLMDVSGSMDQATKDIAKRFYVLLYLFLTRTYENVEVVFIRHHTQAKEVNEHDFFYSQETGGTMVSSALKLMRDIVAERFPANEWNIYAAQASDGDNWADDSPKCKELLTSSILPTCQYYSYIEITKRHHQTLWTEYDKLAQGFDNFAMKNIRSVEDIYPIFRELFQKQLALEHHHHHH	not soluble
